The source of these data is article PMC2367712.

This data set concerns the target Lsr2 P103A (Mycobacterium tuberculosis, UniProt P9WIP7 1-112, P101A). The experiment in a line: EMSA.

B1: C42 (dsDNA)
DNA 1: AAAAATCTCTAAAAAATCTCTAAAAATCTCTAAAAAATCTCT
DNA 2: AGAGATTTTTTAGAGATTTTTAGAGATTTTTTAGAGATTTTT
Consider B1, for which the binding result is listed as “binds”.
